We go through one molecule from publication PMC3718342.

This experiment deals with T1, 6His-Scy (recombinant, from E. coli).
T1 chain: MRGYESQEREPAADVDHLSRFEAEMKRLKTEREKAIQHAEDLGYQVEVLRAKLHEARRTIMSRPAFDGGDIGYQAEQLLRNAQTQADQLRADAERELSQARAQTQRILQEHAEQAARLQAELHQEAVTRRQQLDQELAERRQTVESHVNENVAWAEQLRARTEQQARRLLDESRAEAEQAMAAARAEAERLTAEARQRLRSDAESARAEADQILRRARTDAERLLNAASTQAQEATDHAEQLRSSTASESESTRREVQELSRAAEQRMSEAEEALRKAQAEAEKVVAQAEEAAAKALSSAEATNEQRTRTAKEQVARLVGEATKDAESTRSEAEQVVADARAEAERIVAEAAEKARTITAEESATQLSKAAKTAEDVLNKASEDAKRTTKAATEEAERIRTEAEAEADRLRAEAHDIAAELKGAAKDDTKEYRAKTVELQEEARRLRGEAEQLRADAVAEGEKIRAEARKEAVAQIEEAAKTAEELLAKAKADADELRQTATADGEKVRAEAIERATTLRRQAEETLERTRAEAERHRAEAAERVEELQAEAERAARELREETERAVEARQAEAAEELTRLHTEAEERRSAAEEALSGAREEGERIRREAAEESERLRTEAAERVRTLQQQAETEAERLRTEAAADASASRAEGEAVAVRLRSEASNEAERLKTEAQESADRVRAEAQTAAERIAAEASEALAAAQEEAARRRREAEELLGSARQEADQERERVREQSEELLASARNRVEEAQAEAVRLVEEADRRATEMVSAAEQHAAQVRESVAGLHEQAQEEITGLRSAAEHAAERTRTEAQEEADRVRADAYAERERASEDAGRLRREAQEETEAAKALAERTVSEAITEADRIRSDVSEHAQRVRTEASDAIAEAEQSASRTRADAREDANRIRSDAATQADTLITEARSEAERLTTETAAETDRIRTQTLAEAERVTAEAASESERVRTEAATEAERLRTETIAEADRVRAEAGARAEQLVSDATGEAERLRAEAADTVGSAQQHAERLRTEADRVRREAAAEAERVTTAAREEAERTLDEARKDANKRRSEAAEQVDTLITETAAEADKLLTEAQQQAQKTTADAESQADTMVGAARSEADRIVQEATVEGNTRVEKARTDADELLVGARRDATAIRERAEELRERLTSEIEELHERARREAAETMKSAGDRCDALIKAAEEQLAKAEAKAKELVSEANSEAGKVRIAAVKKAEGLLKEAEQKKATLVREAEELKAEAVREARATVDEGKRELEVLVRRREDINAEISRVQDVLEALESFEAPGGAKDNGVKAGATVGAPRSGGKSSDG
The experiment is described as follows: SPR. The conditions noted are these: chain shown with the change, ParA or ParAScy- (500 RU) immobilized on CM5 in the presence of ATP, read off a plot.

B1: ParA (purified recombinant wild type) S249Y; E250V (protein)
chain: MDDTPIGRAAQLAVEALGRAGEGLPRPEQTRVMVVANQKGGVGKTTTTVNLAASLALHGARVLVVDLDPQGNASTALGIDHHADVPSIYDVLVESRPLSEVVQPVPDVEGLFCAPATIDLAGAEIELVSLVARESRLQRAITAYEQPLDYILIDCPPSLGLLTVNALVAGQEVLIPIQCEYYALEGLGQLLRNVDLVRGHLNPTLHVSTILLTMYDGRTRLASQVADEVRSHFGEEVLRTSIPRSVRIYVAPSYGQTVLTYDPGSSGALSYLEAAREIALKGVGVTYDATHAHLGAQNDPSMVEGTQ
On to B1, for which the response was found to be 4.5 RU (600 nM 6His-Scy, parent: est. 13); 12 RU (1000 nM 6His-Scy, parent: est. 27); 17 RU (2000 nM 6His-Scy, parent: est. 43); 25 RU (4000 nM 6His-Scy, parent: est. 53).
